Measured values published in US20090312253A1.
Where a chain is given by its changes, count along the chain named. Numbers in names are those of the source.

Key:
[1] = target: LRP6 expressed on HEK cells transfected with the LRP6 plasmid; assay: Dkk1-AP conditioned medium on LRP6-transfected HEK cells, AP activity in cell lysate, wild type = 100%
[2] = target: LRP6 expressed on HEK cells transfected with the LRP6 plasmid; assay: binding of Dkk1 to LRP6, assay not described for this mutant (data not shown)

B1: mouse Dkk1-AP mutant H210E (ligand, UniProt O54908 32-272, looked up, not shown: large carriers)
chain: TLNSVLINSNAIKNLPPPLGGAGGQPGSAVSVAPGVLYEGGNKYQTLDNYQPYPCAEDEECGSDEYCSSPSRGAAGVGGVQICLACRKRRKRCMRHAMCCPGNYCKNGICMPSDHSHFPRGEIEESIIENLGNDHNAAAGDGYPRRTTLTSKIYHTKGQEGSVCLRSSDCAAGLCCAREFWSKICKPVLKEGQVCTKHKRKGSHGLEIFQRCYCGEGLACRIQKDHHQASNSSRLHTCQRH
reduction of binding to LRP6 against wild-type Dkk1 [1]: > 50%

B2: mouse Dkk1-AP mutant K217E (ligand, UniProt O54908 32-272, looked up, not shown: large carriers)
chain: B1 chain with E179H, K186E
reduction of binding to LRP6 against wild-type Dkk1 [1]: > 50%

B3: mouse Dkk1-AP mutant R242E (ligand, UniProt O54908 32-272, looked up, not shown: large carriers)
chain: B1 chain with E179H, R211E
reduction of binding to LRP6 against wild-type Dkk1 [1]: > 50%

B4: mouse Dkk1-AP mutant H267E (ligand, UniProt O54908 32-272, looked up, not shown: large carriers)
chain: B1 chain with E179H, H236E
reduction of binding to LRP6 against wild-type Dkk1 [1]: 43%

B5: Dkk1 mutant L266A (ligand, mouse, UniProt O54908 32-272, looked up, not shown: large carriers)
chain: B1 chain with E179H, L235A
reduction of binding to LRP6 against wild-type Dkk1 [2]: 40%
